Here are results for one molecule from article PMC3273827.

In this series the target is T1, La(4-325) (Homo sapiens, UniProt P05455 4-325).
T1 sequence: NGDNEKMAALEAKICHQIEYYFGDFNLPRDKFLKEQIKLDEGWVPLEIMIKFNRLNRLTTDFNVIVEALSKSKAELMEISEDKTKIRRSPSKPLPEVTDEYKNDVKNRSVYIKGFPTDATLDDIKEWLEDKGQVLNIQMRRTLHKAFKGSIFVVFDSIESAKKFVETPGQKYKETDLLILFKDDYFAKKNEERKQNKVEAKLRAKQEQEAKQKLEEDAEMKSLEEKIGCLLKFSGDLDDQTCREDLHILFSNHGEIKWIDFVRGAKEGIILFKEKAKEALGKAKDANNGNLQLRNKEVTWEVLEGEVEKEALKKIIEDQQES
Nature of the series: ITC. (In general: In ITC the heat of successive injections is recorded.)

B1: 27-mer ssRNA (ssRNA)
RNA: ACCUAACCACCACUACCACCUCCCACA
Take B1: the binding result is recorded as “no binding”.
